Article doi:10.1101/2023.09.07.556688 (bioRxiv, 2023)

B1: truncated atP5CS2 protein consisting of residues 1-290 (atP5CS2-GK) (domain or fragment, Arabidopsis thaliana, UniProt P54888 1-290, looked up)
chain: MTEIDRSRAFAKDVKRIVVKVGTAVVTGKGGRLALGRLGAICEQLAELNSDGFEVILVSSGAVGLGRQRLRYRQLVNSSFADLQKPQMELDGKACAGVGQSSLMAYYETMFDQLDVTVAQMLVTDSSFRDKDFRKQLSETVKAMLRMRVIPVFNENDAISTRRAPYKDSTGIFWDNDSLAALLSLELKADLLILLSDVEGLYTGPPSDSTSKLIHTFIKEKHQDEITFGEKSKLGRGGMTAKVKAAVNAAYGGVPVIITSGYAAENISKVLRGLRVGTLFHQDAHLWAPV
B2: Arabidopsis thaliana Delta-1-pyrroline-5-carboxylate synthase 2 (atP5CS2), wild type (enzyme, UniProt P54888 1-726, looked up)
chain: MTEIDRSRAFAKDVKRIVVKVGTAVVTGKGGRLALGRLGAICEQLAELNSDGFEVILVSSGAVGLGRQRLRYRQLVNSSFADLQKPQMELDGKACAGVGQSSLMAYYETMFDQLDVTVAQMLVTDSSFRDKDFRKQLSETVKAMLRMRVIPVFNENDAISTRRAPYKDSTGIFWDNDSLAALLSLELKADLLILLSDVEGLYTGPPSDSTSKLIHTFIKEKHQDEITFGEKSKLGRGGMTAKVKAAVNAAYGGVPVIITSGYAAENISKVLRGLRVGTLFHQDAHLWAPVVDTTSRDMAVAARESSRKLQALSSEDRKQILHDIANALEVNEKTIKAENDLDVAAAQEAGYEESLVARLVMKPGKISSLAASVRQLAEMEDPIGRVLKKTQVADDLILEKTSSPIGVLLIVFESRPDALVQIASLAIRSGNGLLLKGGKEARRSNAILHKVITDAIPETVGGKLIGLVTSREEIPDLLKLDDVIDLVIPRGSNKLVSQIKNSTKIPVLGHADGICHVYVDKSGKLDMAKRIVSDAKLDYPAACNAMETLLVHKDLEQNGFLDDLIYVLQTKGVTLYGGPRASAKLNIPETKSFHHEYSSKACTVEIVEDVYGAIDHIHQHGSAHTDCIVTEDSEVAEIFLRQVDSAAVFHNASTRFSDGFRFGLGAEVGISTSRIHARGPVGVEGLLTTRWIMRGKGQVVDGDNGIVYTHKDLPVLQRTEAVENGI

Tests used:
[1] = target: the molecule itself; test: negative-stain EM
[2] = target: the molecule itself; test: cryo-EM structure

Protein	binding result [1]	stoichiometry N [2]
B1	binds	
B2		4
